The results in this text go back to publication PMC12335590.

The assay concerns the target mouse platelet glycoprotein Ibα (mouse (endogenous in platelets)) (UniProt O35930).
Chain of UniProt O35930 (O35930 17-734): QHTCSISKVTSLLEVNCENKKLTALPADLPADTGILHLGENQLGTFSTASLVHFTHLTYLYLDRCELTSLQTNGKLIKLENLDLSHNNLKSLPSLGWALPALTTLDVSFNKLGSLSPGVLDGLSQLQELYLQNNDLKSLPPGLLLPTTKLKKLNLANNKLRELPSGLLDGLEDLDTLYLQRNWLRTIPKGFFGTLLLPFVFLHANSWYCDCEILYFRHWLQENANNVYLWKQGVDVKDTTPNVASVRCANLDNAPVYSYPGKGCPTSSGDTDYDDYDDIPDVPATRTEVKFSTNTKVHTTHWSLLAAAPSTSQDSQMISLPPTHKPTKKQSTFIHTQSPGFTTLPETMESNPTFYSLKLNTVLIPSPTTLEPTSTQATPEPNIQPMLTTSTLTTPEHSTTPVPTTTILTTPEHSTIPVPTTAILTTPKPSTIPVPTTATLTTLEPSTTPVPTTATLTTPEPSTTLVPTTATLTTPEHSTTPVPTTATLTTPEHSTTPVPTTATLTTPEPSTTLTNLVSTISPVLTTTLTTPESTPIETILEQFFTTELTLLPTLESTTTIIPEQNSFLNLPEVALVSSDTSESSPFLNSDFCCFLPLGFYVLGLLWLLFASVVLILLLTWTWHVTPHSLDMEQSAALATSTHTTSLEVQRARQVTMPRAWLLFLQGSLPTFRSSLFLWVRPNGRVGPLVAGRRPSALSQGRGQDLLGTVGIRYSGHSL

For the substance “recombinant mouse von Willebrand factor, Q8CIZ8 764-2813”, the translocation (rolling) velocity of Mical1+/+ platelets on immobilised recombinant mouse VWF at 1500 s-1 after αIIbβ3 blockade was determined as 1.41 μm/s.
